Experimental findings from publication PMC10491405 (PLOS Pathogens, 2023) are described below.

What all share (assay): ELISA
What all share (settings): both partners purified

For assay [1], the target named is T1, full-length recombinant H1 HA protein (A/California/07/09, H1N1) (Influenza A virus A/California/07/2009 …, UniProt C3W5X2).
T1 construct: source: bought: Protein Sciences Corporation (purified recombinant full-length HA)

The target in assay [2] is T2, H1 rHA ectodomain (trimeric HA ectodomain, A/California/07/09, H1N1) (Influenza A virus A/California/07/2009 …, UniProt C3W5X2).
T2 construct: source: bought: International Reagent Resource and Sino Biological (HA ectodomains)

The target in assay [3] is recombinant HA1 head protein (rHA1) of H1 HA (A/California/07/09, H1N1) (Influenza A virus A/California/07/2009 …, UniProt C3W5X2).

B1: mouse monoclonal stem antibody C179 (antibody, V domains shown)
VH: EVKLVESGGGLVQPGGSLRLSCGTSGFTLTDDYMTWVRQPPGKALEWLGFIRDRANGYTTEYSASVKGRFTISRDNSQSIVYLQMNTLRVEDSATYYCARPKGYFPYAMDYWGQGTSVIVSS
VL: DIQMTQSPASQSASLGESVTITCLASQTIGTWLAWYQQKPGKSPQLLIYAATSLADGVPSRFSGSGSGTKFSFKISSLQAEDFVSYYCQQLYSTPWTFGGGTRLEIK
notes: source: purified from hybridoma from mouse ascitic fluid
Regarding B1, the binding result was “binds” in assay [1], “binds” in assay [2] and “no binding (tested: 0.5 μg/ml)” in assay [3].

B2: human monoclonal stem antibody FI6v3 (antibody, V domains shown)
VH: QVQLVESGGGVVQPGRSLRLSCAASGFTFSTYAMHWVRQAPGKGLEWVAVISYDANYKYYADSVKGRFTISRDNSKNTLYLQMNSLRAEDTAVYYCAKDSQLRSLLYFEWLSQGYFDYWGQGTLVTVSS
VL: not shown
notes: also called mAb FI6v3; source: VRC, NIH
Consider B2, for which the binding result in assay [1] is listed as “binds”.
